Results taken from patent publication US20100183625A1 (published 2010).
Residue numbers refer to the chain shown, from its start.

B1: M6-D09 (antibody, V domains shown)
VH: EVQLLESGGGLVQPGGSLRLSCAASGFTFSFYYMVWVRQAPGKGLEWVSVIYPSGGITVYADSVKGRFTISRDNSKNTLYLQMNSLRAEDTAVYYCARDKWAVMPPYYYYAMDVWGQGTTVTVSS
VL: DIQMTQSPSSLSASVSDRVTITCRASQSIRNYLNWYQQKPSKAPNLLIYAASTLQSGVPARFSGSGSGTDFTLTISSLQPEDFATYYCQQLSGYPHTFGQGTKLEIK
B2: M7-B04 (antibody, V domains shown)
VL: QSALTQPASVSGSPGQSITISCTGTNSDVGNYNLVSWYQQHPGEAPKLLIYEVNKRPSGVSNRFSGSKSGNTASLTISGLQAEDEADYLCCSYAGNRNFYVFGAGTKVTVL
VH: EVQLLESGGGLVQPGGSLRLSCAASGFTFSWYSMVWVRQAPGKGLEWVSSISPSGGLTNYADSVKGRFTISRDNSKNTLYLQMNSLRAEDTAVYYCARHTAARPFYYYYMDVWSKSTTVTVSSASTKGPSVFPLAPSSKS
B3: M137-E12 (antibody, V domains shown)
VH: EVQLLESGGGLVQPGGSLRLSCAASGFTFSDYRMQWVRQAPGKGLEWVSVIVPSGGNTMYADSVKGRFTISRDNSKNTLYLQMNSLRAEDTAVYYCARGGPGSSIAARPAPTGYYGMDVWGQGTTVTVSS
VL: QSVLIQPPSVSGIPGQRVTISCSGNNSNFGSNTVTWYQQLPGTAPKLLIYSDSRRPSGVPDRFSGSRSDTSASLAISGLQSEDEAEYHCAAWDDSLNGVFGGGTKLTVL
B4: M12-B05 (antibody, V domains shown)
VH: EVQLLESGGGLVQPGGSLRLSCAASGFTFSWYTMVWVRQAPGKGLEWVSYIYPSGGATFYADSVKGRFTISRDNSKNTLYLQMNSLRAEDTAVYYCAMGSYDYIWGFYSDHWGQGTLVTVSS
VL: QSALTQPPTVSVSPGQTARITCSGNKLGDKYVAWYQQKPGQSPMLVIYQDTKRPSRVSERFSGSNSANTATLSISGTQALDEADYYCQAWDSSIVIFGGGTRLTVL
B5: M29-D09 (antibody, V domains shown)
VH: B4 VH
VL: B4 VL with R56A, V57I, S58P
B6: M29-E09 (antibody, V domains shown)
VH: EVQLLESGGGLVQPGGSLRLSCAASGFTFSWYEMGWVRQAPGKGLEWVSSIYSSGGGTMYADSVKGRFTISRDNSKNTLYLQMNSLRAEDTAVYYCARNPQYSGYDRSLSDGAFDIWGQGTMVTVSS
VL: QYELTQPPSVSVSPSQTATITCSGDNLGNKYNSWYQQKPGQSPLLVIYQDTKRPSAIPERFSGSNSGNTAILTISGTQAMDEADYYCQAWDGNVVFGGGTKLTVL
B7: M76-D01 (antibody, V domains shown)
VH: EVQLLESGGGLVQPGGSLRLSCAASGFTFSFYAMHWVRQAPGKGLEWVSGIVPSGGRTHYADSVKSRFTISRDNSKNTLYLQMNSLRAEDTAVYYCATDSSGSPNPLFDYWGQGTLVTVSS
VL: DIVMTQTPPSLPVNPGEPASISCRSSQSLSDDGNTYLDWYLQRPGQSPQLLIHTLSYRASGVPDRFSGSGSGTDFTLKISRVEAEDVGVYYCMQGTHWPPTFGQGTKVEIK
B8: M10-F10 (antibody, V domains shown)
VH: EVQLLESGGGLVQPGGSLRLSCAASGFTFSFYNMNWVRQAPGKSLEWVSSISPSGGETNYADSVKGRFTISRDNSKNTLYLQMNSLRAEDTAVYYCARGGGAYRNNWWGGFDIWGLGTMVTVSS
VL: DIQMTQSPSSLSASVGDRVTITCRASQSISVYLNWYQHKPGKAPKLLIYGASNLQFGVPSRFSGSGYGTDFTLTISSLQPEDFATYHCQQTFSLFTFGGGTKVEIK

Each binder was assayed against T1, human plasma kallikrein (human, UniProt P03952 20-390; P03952 391-638) (assay: apparent Ki (Ki,app), inhibition of human pKal activity).
T1 construct: also called pKal; human pKal
T1 sequence (P03952 20-390, chain 1 of 2): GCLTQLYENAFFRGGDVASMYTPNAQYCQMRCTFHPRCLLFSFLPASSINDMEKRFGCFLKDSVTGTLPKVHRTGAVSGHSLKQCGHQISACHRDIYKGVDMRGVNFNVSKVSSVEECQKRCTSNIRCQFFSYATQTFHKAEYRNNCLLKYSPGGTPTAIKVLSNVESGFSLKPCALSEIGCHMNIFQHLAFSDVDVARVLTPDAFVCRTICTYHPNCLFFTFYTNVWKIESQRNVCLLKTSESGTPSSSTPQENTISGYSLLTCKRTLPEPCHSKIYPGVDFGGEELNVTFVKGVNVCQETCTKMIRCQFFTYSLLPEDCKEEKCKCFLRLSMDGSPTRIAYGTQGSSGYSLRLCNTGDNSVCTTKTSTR
T1 sequence (P03952 391-638, chain 2 of 2): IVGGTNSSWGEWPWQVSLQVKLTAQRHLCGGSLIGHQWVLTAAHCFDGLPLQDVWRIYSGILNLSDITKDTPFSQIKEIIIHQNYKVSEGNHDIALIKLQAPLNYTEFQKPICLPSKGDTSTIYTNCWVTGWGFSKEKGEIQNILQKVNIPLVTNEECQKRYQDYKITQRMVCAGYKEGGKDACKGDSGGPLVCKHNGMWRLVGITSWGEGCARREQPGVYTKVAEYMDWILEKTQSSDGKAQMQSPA
For B1, the Ki was 5.9 nM.
For B2, the Ki was 54 nM.
In the case of B3, the Ki is reported as 79 nM.
In the case of B4, the Ki is reported as 4.9 nM.
In the case of B5, the Ki is reported as 0.7 nM.
B6 gave a Ki of 11 nM.
For B7, the Ki was < 100 nM.
B8 was tested, and the Ki was < 100 nM.

Each binder was assayed against T1, human plasma kallikrein (assay: ELISA; signal on biotinylated plasma kallikrein divided by signal on streptavidin background).
From the text: Abbreviations used: “T/B” is the ELISA signal obtained using of the “target” (biotinylated plasma kallikrein) divided by the ELISA signal of the “background” (streptavidin); both of which were coated on microtiter plates. “nd” is not determined. The symbol “q” refers to the amber suppressible stop codon (TAG), which is translated as glutamine (Q) in strains of E. coli such as the TG1 cells that were used to express the Fab fragments.
For B1, the “ELISA (T/B)” value was 39.9 T/B ratio.
With B2 the “ELISA (T/B)” value was 4.1 T/B ratio.
B3 was tested, and the “ELISA (T/B)” value was 4.5 T/B ratio.
With B4 the “ELISA (T/B)” value was 38.4 T/B ratio.
For B5, the “ELISA (T/B)” value was 47.5 T/B ratio.
B6 was tested, and the “ELISA (T/B)” value was 28.8 T/B ratio.
For B7, the “ELISA (T/B)” value was 11.2 T/B ratio.
In the case of B8, the “ELISA (T/B)” value is reported as 39.2 T/B ratio.
